From US20210214459A1 (Novartis, published 2021)

T1: human CD73 expressed on the cell surface (human, UniProt P21589 27-549)
T1 construct: whole, on cells; also called surface CD73
T1 sequence (looked up): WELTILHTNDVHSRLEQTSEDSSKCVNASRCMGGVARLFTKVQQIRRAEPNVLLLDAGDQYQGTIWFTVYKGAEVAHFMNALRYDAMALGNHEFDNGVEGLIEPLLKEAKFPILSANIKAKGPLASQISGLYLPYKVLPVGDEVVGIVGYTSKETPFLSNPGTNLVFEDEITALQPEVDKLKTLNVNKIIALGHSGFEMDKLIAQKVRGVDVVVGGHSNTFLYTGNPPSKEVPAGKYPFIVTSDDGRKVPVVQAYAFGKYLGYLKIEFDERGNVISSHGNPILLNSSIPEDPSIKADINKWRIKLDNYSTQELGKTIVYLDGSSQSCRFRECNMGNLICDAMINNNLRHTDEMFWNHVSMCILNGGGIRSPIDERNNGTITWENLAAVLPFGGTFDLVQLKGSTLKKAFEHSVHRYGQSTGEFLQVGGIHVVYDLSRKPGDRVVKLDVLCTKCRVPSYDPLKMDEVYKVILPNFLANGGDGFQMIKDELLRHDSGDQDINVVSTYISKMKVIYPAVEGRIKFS

B1: 356.B (antibody, human IgG4 S228P, kappa, V domains shown)
VH: QVQLQESGPGLVKPSETLSLTCTVSGGSIEGRYWSWIRQPPGKGLEWIGYIYGSGSTKYNPSLKSRVTISVDTSKNQFSLKLSSVTAADTAVYYCARESQESPYNNWFDPWGQGTLVTVSS
VL: DIQMTQSPSSVSASVGDRVTITCRASQGISSWLAWYQQKPGKAPKLLIYAASSLQSGVPSRFSGSGSGTDFTLTISSLQPEDFATYYCQQGNSFPRTFGGGTKVEIKR
notes: IgG4 S228P/L235E format; Heavy chain entry ends in X, wherein X is K or absent; Biotinylated in the whole blood assay
B2: 350.B (antibody, human IgG4 S228P, kappa)
heavy: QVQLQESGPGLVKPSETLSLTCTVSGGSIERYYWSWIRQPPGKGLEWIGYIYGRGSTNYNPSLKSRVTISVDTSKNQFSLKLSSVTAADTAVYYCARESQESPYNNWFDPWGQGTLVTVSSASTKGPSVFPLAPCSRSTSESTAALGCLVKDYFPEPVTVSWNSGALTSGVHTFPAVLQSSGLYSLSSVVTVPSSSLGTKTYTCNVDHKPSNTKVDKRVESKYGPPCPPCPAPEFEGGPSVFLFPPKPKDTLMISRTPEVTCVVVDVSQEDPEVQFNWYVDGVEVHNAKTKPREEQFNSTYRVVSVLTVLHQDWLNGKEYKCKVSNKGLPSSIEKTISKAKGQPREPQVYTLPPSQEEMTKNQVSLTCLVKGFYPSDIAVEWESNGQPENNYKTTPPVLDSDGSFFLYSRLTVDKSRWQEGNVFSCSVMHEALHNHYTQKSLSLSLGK
light: DIQMTQSPSSVSASVGDRVTITCRASQGISSWLAWYQQKPGKAPKLLIYAASSLQSGVPSRFSGSGSGTDFTLTISSLQPEDFATYYCQQGNSFPRTFGGGTKVEIKRTVAAPSVFIFPPSDEQLKSGTASVVCLLNNFYPREAKVQWKVDNALQSGNSQESVTEQDSKDSTYSLSSTLTLSKADYEKHKVYACEVTHQGLSSPVTKSFNRGEC
notes: as for B1
B3: 358.B (antibody, human IgG4 S228P, kappa, V domains shown)
VH: QVQLQESGPGLVKPSETLSLTCTVSGGSISGRYWSWIRQPPGKGLEWIGYIYGTGSTNYNPSLKSRVTISVDTSKNQFSLKLSSVTAADTAVYYCARESQESPYNNWFDPWGQGTLVTVSS
VL: DIQMTQSPSSVSASVGDRVTITCRASQGISSWLAWYQQKPGKAPKLLIYAASSLQSGVPSRFSGSGSGTDFTLTISSLQPEDFATYYCQQGNSFPRTFGGGTKVEIKR
notes: as for B1
B4: 374.B (antibody, human IgG4 S228P, kappa, V domains shown)
VH: EVQLLESGGGLVQPGGSLRLSCAASGFTFSYNAMSWVRQAPGKGLEWVSSISGTGGSTYYADSVKGRFTISRDNSKNTLYLQMNSLRAEDTAVYYCARGGLYGSGSYLSDFDLWGRGTLVTVSS
VL: EIVLTQSPATLSVSPGERATLSCRASQSVGSNLAWYQQKPGQAPRLLIYGASTRATGIPARFSGSGSGTEFTLTISSLQSEDFAVYYCQQHNAFPYTFGGGTKVEIKR
notes: as for B1
B5: 377.B (antibody, IgG4, V domains shown)
VH: EVQLLESGGGLVQPGGSLRLSCAASGFTFKSYAMSWVRQAPGKGLEWVSAISGSGSYTYYADSVKGRFTISRDNSKNTLYLQMNSLRAEDTAVYYCARGGLYGSGSYLSDFDLWGRGTLVTVSS
VL: EIVLTQSPATLSVSPGERATLSCRASQSVGSNLAWYQQKPGQAPRLLIYGASTRATGIPARFSGSGSGTEFTLTISSLQSEDFAVYYCQQHNAFPYTFGGGTKVEIK
notes: IgG4 S228P/L235E format (.B construct); Biotinylated in the whole blood assay
B6: 379.B (antibody, human IgG4 S228P, kappa, V domains shown)
VH: EVQLLESGGGLVQPGGSLRLSCAASGFTFSRYAMSWVRQAPGKGLEWVSSISGTGGSTYYADSVKGRFTISRDNSKNTLYLQMNSLRAEDTAVYYCARGGLYGSGSYLSDFDLWGRGTLVTVSS
VL: EIVLTQSPATLSVSPGERATLSCRASQSVGSNLAWYQQKPGQAPRLLIYGASTRATGIPARFSGSGSGTEFTLTISSLQSEDFAVYYCQQHNAFPYTFGGGTKVEIKR
notes: as for B1

Molecular target: T1, human CD73 expressed on the cell surface
Assay: flow cytometry, biotinylated antibody on CD8+ T cells in human whole blood, streptavidin-APC detection
Protocol: Whole blood target engagement was assessed by flow cytometry using whole blood from healthy human donors. Briefly, biotinylated antibodies were incubated with whole blood for 30 minutes prior to red blood cell lysis and fixation. Fixed cells were stained for CD3 and CD8 to identify CD8+ T cells, and streptavidin-APC to detect biotin. After staining, the cell were washed and subjected to flow cytometry analysis.

B1 and B2 are the same in “EC50 (read off the curve)” value: ~5 ng/mL for the first, ~5 ng/mL for the second.

First: B3
Second: B4
The “EC50 (read off the curve)” value of the first is 1.5-fold lower: ~4 ng/mL for the first, ~6 ng/mL for the second.

B5 and B6 are within 1.5-fold of each other in “EC50 (read off the curve)” value: ~5 ng/mL for the first, ~6 ng/mL for the second.
